Test results as given in PMC1514790, “Tomosyn Inhibits Synaptic Vesicle Priming in Caenorhabditis elegans” (PLoS Biology, 2006).

Molecular target: T1, C. elegans syntaxin-GST (UNC-64 cytoplasmic domain, aa 1-266) (C. elegans, UniProt O16000 1-266)
T1 construct: C. elegans syntaxin (UNC-64), cytoplasmic domain aa 1-266, lacking the TM domain, cloned into pGEX-2T; pGEX-2T normally puts GST at the N-terminus (surmise); also called GST syntaxin; source: recombinant, batch-purified with glutathione agarose under native conditions
T1 sequence (looked up): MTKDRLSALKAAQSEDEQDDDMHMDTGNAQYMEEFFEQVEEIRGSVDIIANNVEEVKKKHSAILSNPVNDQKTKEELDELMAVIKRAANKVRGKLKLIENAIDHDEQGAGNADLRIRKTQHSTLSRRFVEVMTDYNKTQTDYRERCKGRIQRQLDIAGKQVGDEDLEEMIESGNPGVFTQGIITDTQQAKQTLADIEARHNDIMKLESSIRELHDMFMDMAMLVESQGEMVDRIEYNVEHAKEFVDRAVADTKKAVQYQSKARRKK
Experiment: pull-down; ~1.6 uM each of C. elegans syntaxin-GST, rat SNAP-25-His6 and His6-TOM-1Ct or His6-SNB-1, 2 h to overnight at 4 °C in D-buffer, isolated on glutathione agarose; Coomassie Blue staining, densitometry
Settings: both partners purified

B1: C. elegans synaptobrevin SNB-1 cytoplasmic domain (aa 1-88), His6T7-tagged (domain or fragment, UniProt O02495 1-88, looked up)
chain: MDAQGDAGAQGGSQGGPRPSNKRLQQTQAQVDEVVGIMKVNVEKVLERDQKLSQLDDRADALQEGASQFEKSAATLKRKYWWKNIKMM
notes: C. elegans synaptobrevin (SNB-1), cytoplasmic domain aa 1-88, lacking the TM domain, cloned into pRSETC; also called His6T7-tagged SNB-1; His6-SNB-1; source: recombinant, purified (Ni-NTA agarose)
B1: binds.
